Data as given in paper PMC8876998.
Values joined by “and” are separate entries in the source; they are usually repeats but may differ in a detail not shown here. Equal entries are not always repeated.

Legend:
[1] = molecular target: Getah virus capsid protein (Getah virus (GETV), strain SC483); assay: cryo-EM structure
[2] = molecular target: Getah virus envelope glycoprotein E2 (Getah virus (GETV), strain SC483); assay: cryo-EM structure

Row | Substance | stoichiometry N [1] | stoichiometry N [2]
1 | Getah virus capsid protein (natural protein) | 6 and 5 | 
2 | Getah virus envelope glycoprotein E2 (natural protein) |  | 3
